Source: article PMC4359774, “AZT resistance alters enzymatic properties and creates an ATP-binding site in SFVmac reverse transcriptase”

Target: T1, SFVmac PR-RT WT (Simian foamy virus from macaques …, UniProt P23074 1-751)
T1 sequence: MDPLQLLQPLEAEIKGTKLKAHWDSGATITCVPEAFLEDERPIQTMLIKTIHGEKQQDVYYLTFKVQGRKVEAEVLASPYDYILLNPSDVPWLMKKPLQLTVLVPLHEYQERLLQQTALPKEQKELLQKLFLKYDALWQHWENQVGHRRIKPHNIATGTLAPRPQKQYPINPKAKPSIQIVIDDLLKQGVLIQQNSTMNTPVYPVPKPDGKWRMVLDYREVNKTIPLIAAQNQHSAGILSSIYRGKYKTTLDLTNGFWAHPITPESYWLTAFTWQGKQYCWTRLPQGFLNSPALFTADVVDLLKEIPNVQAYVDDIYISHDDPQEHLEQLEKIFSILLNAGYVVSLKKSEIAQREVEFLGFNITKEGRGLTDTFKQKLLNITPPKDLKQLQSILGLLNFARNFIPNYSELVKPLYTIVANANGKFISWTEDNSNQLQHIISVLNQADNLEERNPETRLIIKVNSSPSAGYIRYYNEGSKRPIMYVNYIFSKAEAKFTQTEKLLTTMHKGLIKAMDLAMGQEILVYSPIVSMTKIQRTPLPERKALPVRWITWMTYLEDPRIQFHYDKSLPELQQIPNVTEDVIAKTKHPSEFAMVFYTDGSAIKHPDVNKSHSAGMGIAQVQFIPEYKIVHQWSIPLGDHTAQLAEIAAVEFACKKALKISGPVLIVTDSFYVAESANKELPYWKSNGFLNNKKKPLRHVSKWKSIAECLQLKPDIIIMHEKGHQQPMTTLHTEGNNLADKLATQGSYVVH
Assay: fluorescence anisotropy; Fluorescence equilibrium titration, 5 nM DNA, 25 C; buffer, salt and pH not given in the material (refs 14, 43)
Conditions: protein: recombinant; label: 5' DY647 on template (S6); 24 bp; template 5' overhang 5 nt and 3' overhang 11 nt

B1: 24/40-mer DNA/DNA primer/template (dsDNA)
DNA 1: CTAATTCCGCTTTCCCCTCTCCTGGTGATCCTTTCCATCC
DNA 2: ATCACCAGGAGAGGGGAAAGCGGA
Kd: 9.6 ± 0.7 nM
